Assay results from publication PMC12732654, “Thermodynamic Profiling Reveals DNA Polymerase Template Binding, Substrate Incorporation, and Exonuclease Function”.

Experiments:
[1] = molecular target: T1, SS_01 (engineered Phi29 DNA polymerase) (bacteriophage Phi29 (engineered; …, UniProt P03680 1-575, M97K;A484E;K512Y); assay: ITC; 1 mM Ca2+; ITC: 1x PBS pH 7.5, 0.01% BSA, 0.05% Tween-20, with no metal, 1 mM MgCl2 or 1 mM CaCl2, 25 C, 5 uM SS_01; EMSA: 20 mM HEPES pH 7.5, 4 mM DTT, 1 mM metal chloride, 30 C 30 min, 100 nM DNA, 10 nM polymerase; settings: protein: recombinant; 63 bp duplex, 5' overhang 7 nt on the 70-mer template
T1 sequence: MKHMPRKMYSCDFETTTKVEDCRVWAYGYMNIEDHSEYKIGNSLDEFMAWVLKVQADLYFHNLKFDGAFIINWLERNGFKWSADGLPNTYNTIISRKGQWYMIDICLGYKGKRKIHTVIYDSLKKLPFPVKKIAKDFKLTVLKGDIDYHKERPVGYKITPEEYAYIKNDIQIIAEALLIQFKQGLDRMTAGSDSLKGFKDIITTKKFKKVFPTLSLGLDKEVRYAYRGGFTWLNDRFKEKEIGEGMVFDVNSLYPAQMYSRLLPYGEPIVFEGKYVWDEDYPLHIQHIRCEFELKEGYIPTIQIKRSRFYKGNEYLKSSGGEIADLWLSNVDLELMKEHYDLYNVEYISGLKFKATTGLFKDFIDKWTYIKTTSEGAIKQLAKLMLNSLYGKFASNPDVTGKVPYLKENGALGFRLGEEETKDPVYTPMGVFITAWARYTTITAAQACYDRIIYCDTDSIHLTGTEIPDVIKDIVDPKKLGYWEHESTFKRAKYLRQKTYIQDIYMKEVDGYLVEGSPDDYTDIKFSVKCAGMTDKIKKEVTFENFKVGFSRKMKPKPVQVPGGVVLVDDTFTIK

[2] = molecular target: T1, SS_01 (engineered Phi29 DNA polymerase); assay: ITC; 1 mM Mg2+ (Mg2+/Ca2+ comparison set); ITC: 1x PBS pH 7.5, 0.01% BSA, 0.05% Tween-20, with no metal, 1 mM MgCl2 or 1 mM CaCl2, 25 C, 5 uM SS_01; EMSA: 20 mM HEPES pH 7.5, 4 mM DTT, 1 mM metal chloride, 30 C 30 min, 100 nM DNA, 10 nM polymerase; settings: protein: recombinant; 63 bp duplex, 5' overhang 7 nt on the 70-mer template
[3] = molecular target: T1, SS_01 (engineered Phi29 DNA polymerase); assay: ITC; no Mg2+; 10 uM DNA into 5 uM protein; ITC: 1x PBS pH 7.5, 0.01% BSA, 0.05% Tween-20, with no metal, 1 mM MgCl2 or 1 mM CaCl2, 25 C, 5 uM SS_01; EMSA: 20 mM HEPES pH 7.5, 4 mM DTT, 1 mM metal chloride, 30 C 30 min, 100 nM DNA, 10 nM polymerase; settings: protein: recombinant; 63 bp duplex, 5' overhang 7 nt on the 70-mer template
[4] = molecular target: T1, SS_01 (engineered Phi29 DNA polymerase); assay: ITC; 1 mM Mg2+; 10 uM DNA into 5 uM protein; ITC: 1x PBS pH 7.5, 0.01% BSA, 0.05% Tween-20, with no metal, 1 mM MgCl2 or 1 mM CaCl2, 25 C, 5 uM SS_01; EMSA: 20 mM HEPES pH 7.5, 4 mM DTT, 1 mM metal chloride, 30 C 30 min, 100 nM DNA, 10 nM polymerase; settings: protein: recombinant; 63 bp duplex, 5' overhang 7 nt on the 70-mer template
[5] = molecular target: T1, SS_01 (engineered Phi29 DNA polymerase); assay: ITC; Ca2+; exothermic, smaller heat than Mg2+; ITC: 1x PBS pH 7.5, 0.01% BSA, 0.05% Tween-20, with no metal, 1 mM MgCl2 or 1 mM CaCl2, 25 C, 5 uM SS_01; EMSA: 20 mM HEPES pH 7.5, 4 mM DTT, 1 mM metal chloride, 30 C 30 min, 100 nM DNA, 10 nM polymerase; settings: protein: recombinant; single strand
[6] = molecular target: T1, SS_01 (engineered Phi29 DNA polymerase); assay: EMSA; 1 mM Mg2+; ITC: 1x PBS pH 7.5, 0.01% BSA, 0.05% Tween-20, with no metal, 1 mM MgCl2 or 1 mM CaCl2, 25 C, 5 uM SS_01; EMSA: 20 mM HEPES pH 7.5, 4 mM DTT, 1 mM metal chloride, 30 C 30 min, 100 nM DNA, 10 nM polymerase; settings: protein: recombinant; hairpin, self-primed template

B1: 63/70-mer primed template (dsDNA)
DNA 1: TACGCAGCGTACATGCTCGTGACTGGGATAACCGTGCCGTTTGCCGACTTTCGCAGCCGTCCA
DNA 2: AAACCCTTGGACGGCTGCGAAAGTCGGCAAACGGCACGGTTATCCCAGTCACGAGCATGTACGCTGCGTA
modifications: three consecutive phosphorothioates at 3' terminus of 63-mer
In the case of B1, the Kd [1] is reported as 317 ± 75.2 nM, the Kd [2] is reported as 239 ± 68.2 nM and the Kd [3] is reported as 129 ± 9.46 nM. For the same binder, the Kd [4] was 243 ± 80.5 nM.

TCCTAACGAGATTAGTTTTGCTGTT (ssDNA) [unmodified oligonucleotide (non-PS)]: binds [5].

B2: Seq99A hairpin primed template (structured_DNA)
DNA: TTTTTGCGCTCGAGATCTCCGTAAGGAGATCTCGAGCGCGGGACTACTACTGGGATCATCATAGCCACCTCAGCTGCACGTAAGTGCAGCTGAGGTGGC
B2: binds [6].
